Measured values reported in patent US12697402B2, “Detection of colonic neoplasia in vivo using near-infrared peptide targeted against overexpressed cMet” (THE REGENTS OF THE UNIVERSITY OF MICHIGAN, priority 2019, dated 2026).
“Also recorded” adds a separate entry of the source. Ends that are not written are not given here.

Assays:
mouse cMet-ECD = biological target: T1, mouse cMet-ECD (Mus musculus, UniProt P16056); test: Pull-down assay; assay type: binding; conditions: peptide immobilized on EHS beads
T1 construct: incubated with purified mouse cMet-ECD protein (50622-M08H, Sino Biological); purchased Sino Biological 50622-M08H
T1 sequence (P16056 25-931 limits assumed): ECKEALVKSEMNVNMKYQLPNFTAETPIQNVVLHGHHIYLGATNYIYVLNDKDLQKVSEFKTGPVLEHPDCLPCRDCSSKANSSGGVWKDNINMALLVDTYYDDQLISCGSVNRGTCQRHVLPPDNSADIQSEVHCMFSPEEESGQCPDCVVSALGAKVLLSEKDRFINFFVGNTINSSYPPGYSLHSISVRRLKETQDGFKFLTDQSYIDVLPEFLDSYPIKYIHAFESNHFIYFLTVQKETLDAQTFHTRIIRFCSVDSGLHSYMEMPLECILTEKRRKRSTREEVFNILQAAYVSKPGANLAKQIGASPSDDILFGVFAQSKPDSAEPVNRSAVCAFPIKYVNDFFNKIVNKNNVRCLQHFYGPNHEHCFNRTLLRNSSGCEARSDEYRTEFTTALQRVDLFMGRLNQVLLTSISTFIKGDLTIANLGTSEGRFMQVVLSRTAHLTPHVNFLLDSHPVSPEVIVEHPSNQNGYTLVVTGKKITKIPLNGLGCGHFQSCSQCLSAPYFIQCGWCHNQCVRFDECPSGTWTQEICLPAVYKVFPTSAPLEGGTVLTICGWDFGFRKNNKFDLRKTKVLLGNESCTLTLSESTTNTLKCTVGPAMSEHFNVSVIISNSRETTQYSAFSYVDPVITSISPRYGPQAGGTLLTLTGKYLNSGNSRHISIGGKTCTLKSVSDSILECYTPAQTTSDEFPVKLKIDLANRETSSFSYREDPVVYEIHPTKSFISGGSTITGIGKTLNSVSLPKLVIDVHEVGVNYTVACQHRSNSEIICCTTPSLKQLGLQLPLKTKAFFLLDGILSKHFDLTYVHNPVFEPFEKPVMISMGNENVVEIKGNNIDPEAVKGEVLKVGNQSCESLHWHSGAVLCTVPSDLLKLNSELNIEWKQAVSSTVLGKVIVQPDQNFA
Method: Interactions between peptide and mouse cMet were evaluated using a pull-down assay (Paul et al., Methods 54:387-395 (2011)). Peptides were immobilized on EHS active beads (17-0906-01, GE), and incubated with purified mouse cMet-ECD protein (50622-M08H, Sino Biological). After washing, bound proteins were detected by Western blot (FIG. 18).

[1] = tested on: phosphorylation of cMet, AKT and ERK1/2; test: Effect of peptide on cell signaling (Western blot); assay type: cell-based, human; conditions: HT29 cells; 10, 30, 120 min; HGF 25 ng/mL; peptide 5 or 100 μM
Method: HT29 cells were treated with serum-free medium overnight for starvation before incubation with hHGF (hHGF, 294-HG-005, R&D) or peptides. Recombinant Human HGF Protein was added to HT29 cells at concentrations of 25 ng/ml for 10, 30, or 120 min in separate wells. QQT*-Cy5.5 and TLQ*-Cy5.5 were added at concentrations of 5 or 100 μM for 10, 30, and 120 min. Peptides were added at concentrations of 5 and 100 μM for 10, 30, or 120 min. Cells were then washed with 1×PBS and lysed with Pierce RIPA buffer containing Halt Phosphatase Inhibitor Cocktail (Thermo Fisher) and Halt Protease Inhibitor Cocktail (Thermo Fisher). Protein contents were quantified by Bicinchoninic Acid Assay (BCA). Anti-cMet antibody (Cell Signaling, #8198), phospho-cMet (Tyr1234/1235) antibody (Cell Signaling, #3077), anti-AKT antibody (Cell Signaling, #4691), anti-phospho-AKT antibody (Cell Signaling, #9271), anti-ERK1/2 antibody (Abcam, #ab17942), anti-phospho-ERK1/2 antibody (Abcam, #ab50011), and anti-tubulin antibody (Invitrogen, #32-2600) were used per manufacturer's instructions.

cMet (HT29 cells) [2] = biological target: T2, cMet (HT29 cells) (Homo sapiens, UniProt P08581); test: Competition for peptide binding with unlabeled peptides; set-up: endogenous in cells; host or cells: HT29 (cMet+), SW480 (cMet-), HT29 with siRNA knockdown; conditions: unlabeled peptide 0-400 μM, 5 μM QQT*-Cy5.5
T2 sequence (P08581 25-1390): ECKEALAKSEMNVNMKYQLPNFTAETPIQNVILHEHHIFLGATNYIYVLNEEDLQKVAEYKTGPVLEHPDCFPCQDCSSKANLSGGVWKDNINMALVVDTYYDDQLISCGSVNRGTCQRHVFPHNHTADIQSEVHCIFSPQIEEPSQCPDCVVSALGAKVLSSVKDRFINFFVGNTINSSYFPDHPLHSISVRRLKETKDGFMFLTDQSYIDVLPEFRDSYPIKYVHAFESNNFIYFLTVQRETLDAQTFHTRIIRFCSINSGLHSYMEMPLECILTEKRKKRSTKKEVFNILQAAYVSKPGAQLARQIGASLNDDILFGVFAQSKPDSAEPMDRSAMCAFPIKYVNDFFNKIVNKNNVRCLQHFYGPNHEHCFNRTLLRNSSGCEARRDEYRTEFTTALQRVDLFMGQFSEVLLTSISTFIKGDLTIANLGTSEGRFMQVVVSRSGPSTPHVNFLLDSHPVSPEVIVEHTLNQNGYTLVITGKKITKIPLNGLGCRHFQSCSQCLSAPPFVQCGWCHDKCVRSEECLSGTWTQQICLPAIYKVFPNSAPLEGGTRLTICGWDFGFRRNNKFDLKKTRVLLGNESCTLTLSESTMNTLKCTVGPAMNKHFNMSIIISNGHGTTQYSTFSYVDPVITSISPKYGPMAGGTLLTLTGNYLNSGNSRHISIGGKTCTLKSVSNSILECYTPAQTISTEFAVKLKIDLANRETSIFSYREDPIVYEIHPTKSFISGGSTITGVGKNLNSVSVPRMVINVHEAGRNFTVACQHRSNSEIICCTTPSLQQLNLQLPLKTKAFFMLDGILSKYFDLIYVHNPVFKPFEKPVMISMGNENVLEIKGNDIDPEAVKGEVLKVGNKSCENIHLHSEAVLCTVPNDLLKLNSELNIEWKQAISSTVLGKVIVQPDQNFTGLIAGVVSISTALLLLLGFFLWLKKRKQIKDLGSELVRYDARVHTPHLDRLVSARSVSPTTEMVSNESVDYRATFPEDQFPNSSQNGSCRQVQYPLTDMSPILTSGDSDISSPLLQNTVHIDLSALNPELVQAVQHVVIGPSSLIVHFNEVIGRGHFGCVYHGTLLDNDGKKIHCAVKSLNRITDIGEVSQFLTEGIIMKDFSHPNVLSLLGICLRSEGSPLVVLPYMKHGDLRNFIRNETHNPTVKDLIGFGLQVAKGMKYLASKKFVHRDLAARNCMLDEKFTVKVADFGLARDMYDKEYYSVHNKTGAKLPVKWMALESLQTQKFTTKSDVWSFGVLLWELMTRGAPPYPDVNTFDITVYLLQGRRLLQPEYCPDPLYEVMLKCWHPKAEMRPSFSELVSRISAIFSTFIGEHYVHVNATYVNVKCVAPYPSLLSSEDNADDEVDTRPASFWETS
Method: (§1) We used a competition assay between labeled QQT*-Cy5.5 and either unlabeled QQT* or recombinant human hepatocyte growth factor (HGF, […], R&D) to validate the specific binding of QQT**-Cy5.5 to HT29 cells. Approximately 10^3 HT29 cells were grown to about 70% confluence on coverslips in triplicate. Unlabeled QQT* and either TLQ* peptide at 0, 25, 50, 100, 200 and 400 μM, or HGF at 0, 5, 10, 25, 50 or 100 ng/mL, were first added and incubated with the cells for 30 min (i.e., minutes) at 4° C. The cells were washed with 1×PBS three times and then incubated with 5 μM QQT*-Cy5.5 for another 30 min at 4° C. The cells were washed three times with 1×PBS and then fixed with 4% PFA for 10 min. The cells were washed with 1×PBS and mounted with ProLong Gold reagent containing DAPI (Invitrogen). Confocal fluorescence images were collected at each concentration using a 63× objective (Leica SP5 Inverted 2-Photon FLIM Confocal), and intensities from five cells in three independent images were quantified using custom Matlab (Mathworks, Natick, MA) software.

cMet (HT29 cells) [3] = biological target: T2, cMet (HT29 cells); test: Competition for peptide binding with HGF; set-up: endogenous in cells; host or cells: HT29 (cMet+), SW480 (cMet-), HT29 with siRNA knockdown; conditions: HGF 0 to 100 ng/mL; confocal microscopy
Method: as §1

cMet [4] = biological target: T3, cMet (Homo sapiens, UniProt P08581); test: siRNA knockdown of cMet in HT29 cells, binding by confocal microscopy; assay type: cell-based
T3 sequence (P08581 25-1390): as above
Method: (§2) HT29, SW480, S114 and NIH3T3 cells were inoculated in 12-well cell culture plates with circle glass coverslips to about 80% confluence. The cells were blocked with 1×PBS plus 2% BSA for 1 hour at 4° C., then were incubated with 5 μM peptides for 10 min at RT in the dark, washed thrice, and fixed with 4% PFA for 5 min, washed with 1×PBS, then mounted on glass slides with ProLong Gold reagent containing DAPI (Invitrogen, Waltham, MA). As positive control, after blocking with 2% BSA for 1 hour at 4° C., A 1:3000 dilution of primary monoclonal rabbit anti-cMet antibody (Cell Signaling Technology, #8198) was incubated with cells overnight at 4° C. Afterward, the cells were washed thrice with 1×PBS and further incubated with a 1:500 dilution of AF488-labeled secondary goat ant-rabbit immunoglobulin G antibody (Life Technologies, #A-11029) for 1 hour at RT, washed thrice, and then mounted on glass slides with ProLong Gold reagent containing DAPI. Confocal fluorescence images were collected using a 63× oil-immersion objective (Leica SP5 Inverted 2-Photon FLIM Confocal). Fluorescence intensities from five cells in two independent images were quantified using custom Matlab (Mathworks) software.
We knocked down cMet protein levels with siRNAs and then evaluated the binding of QQT*-Cy5.5 and TLQ*-Cy5.5 to the surface of si-cMet-transfected HT29 cells to validate specific peptide binding. We used siRNA1 (SASI_Hs01_00133002, Sigma) for HT29, siRNA2 (SASI_WI_00000001, Sigma) for S114, and MISSION® siRNA #1 Universal Negative Control (SIC001, Sigma) for a negative control. We transfected cells with Lipofectamine 2000 (11668027, Invitrogen) per manufacturer instructions. Knockdown of cMet was confirmed by Western blot (FIG. 18). The cells were incubated with 5 μM peptide for 5 min at RT (i.e., room temperature), and then fixed and mounted on glass slides with ProLong Gold reagent containing DAPI, as previous described. […] Confocal fluorescence images were collected using a 63× oil-immersion objective (Leica SP5 Inverted 2-Photon FLIM Confocal).

cMet [5] = biological target: T3, cMet; test: Confocal microscopy of binding to HT29 (cMet+) versus SW480 (cMet−) cells; assay type: cell-based
Method: as §2

[6] = tested on: flat and polyploid colonic adenomas; test: In vivo endoscopic imaging in CPC;Apc mice; conditions: CPC;Apc mouse; topical / intra-rectal, 100 μM, 5 min incubation
Method: A CPC;Apc mouse model that can develop spontaneous adenomas in distal colon epithelium^44 was also used. Under the control of the Cdx2 promoter (CDX2P-9.5NLS-Cre), Cre recombinase can sporadically delete the adenomatous polyposis coli (APC) allele, resulting in polyploid colonic adenomas or flat lesions. We collected images from mice (n=8) that ranged in age from 7 to 10 months.
In vivo imaging was performed with approval of the University of Michigan Committee on the Use and Care of Animals. CPC;Apc mice were used for in vivo imaging. […]
(§3) A rigid small animal endoscope (Karl Sorz Veterinary Endoscopy) was inserted into the rectum (Liu et al., Gut 62:395-403 (2013)) and used to image the distal colon^45. […] The distance between the endoscope tip and the anus, and the clockwise location of polyps, were recorded. […] A ratio of the fluorescence and reflectance images was determined to correct for differences in distance and geometry over the image field-of-view (FOV) (Joshi et al., Endoscopy 48:A1-A13 (2016)). […]
The mean fluorescence intensity was used to calculate the target-to-background (T/B) ratios. Images were processed and analyzed using custom software in Matlab (Mathworks) (Joshi et al., Gastroenterology 152:1002-1013 e1009 (2017)). Matlab software was used to quantify the fluorescence intensity. […]

[7] = tested on: human colon organoids (adenoma, SSA, normal); test: In vivo endoscopic imaging of patient-derived colon organoids implanted in NOD/SCID mice; conditions: NOD/SCID mouse; topical administration
Method: Acute colitis was induced in 8-week-old NOD.Cg-Prkdcscid Il2rgtm1Wjl/SzJ mice (005557, The Jackson Laboratory)^40,41 by feeding them with 3.0% DSS (molecular weight 40,000; Cat #AAJ6360622; Alfa Aesar) dissolved in drinking water for 5 days (d). At 6 d, the donor organoids were released from the type I collagen gel, dissociated by EDTA, and washed with BSA-containing PBS as with the passage procedure. Approximately 2.5-5E5 cell aggregates in 200 μL were transplanted per mouse as previously described^42,43. Organoids were instilled into colonic lumen as a suspension by using a syringe and a thin flexible catheter 4 cm in length and 2 mm in diameter. The anal verge was glued for 6 hours after infusion to prevent luminal contents from being excreted immediately, then glue were removed by Ethanol. Mice were maintained as usual after the transplantation. The mice were housed in pathogen-free conditions and supplied water ad libitum under controlled conditions of humidity (50±10%), light (12/12 hour light/dark cycle) and temperature (25° C.). […]
as §3
The mean fluorescence intensity was used to calculate the target-to-background (T/B) ratios. Images were processed and analyzed using custom software in Matlab (Mathworks) (Joshi et al., Gastroenterology 152:1002-1013 e1009 (2017)). Matlab software was used to quantify the fluorescence intensity. The fluorescence intensity of regions of interest (ROI) was corrected by taking the ratio of fluorescence to reflectance, the fluorescence of interested region was taken as target (T), and adjacent mouse normal colon region with equal area was picked for use as background (B)^46. […]

cMet [8] = biological target: T3, cMet; test: Confocal microscopy of binding to S114 (cMet+) versus NIH3T3 (cMet−) cells; assay type: cell-based, mouse; set-up: expressed in transfected cells; host or cells: S114 (NIH 3T3 mouse fibroblasts transformed with human HGF/SF and Met); NIH3T3 as cMet- control; conditions: 5 μM peptide
Text: Human CRC cell lines HT29, SW480, CCD841 and mouse embryonic fibroblast cell line NIH 3T3 were obtained from the American Type Culture Collection (ATCC, Manassas, VA). The S114 cell line comprised NIH 3T3 cells transformed with human HGF/SF and Met and expressed cMet. We used McCoy's 5A Medium (Gibco) for culturing HT29 cells and Dulbecco's Modified Eagle Medium (Gibco) was used to culture SW480, NIH3T3 and S114 cells. Eagle's Minimum Essential Medium (Lonza) was used for CCD841 cells. All cells were cultured at 37° C. in 5% CO2, and supplemented with 10% fetal bovine serum (FBS). The cells were passaged using 0.25% trypsin containing EDTA (Mediatech, Manassas, VA). Cell numbers were quantitated on a hemocytometer. Peptide synthesis reagents were obtained from Anaspec (Anaspec, Fremont, CA) or AAPPTEC (AAPPTEC, Louisville, KY), were of the highest grade available (>99% purity), and were used without further purification. […]
HT29, SW480, S114 and NIH3T3 cells were inoculated in 12-well cell culture plates with circle glass coverslips to about 80% confluence. […] Confocal fluorescence images were collected using a 63× oil-immersion objective (Leica SP5 Inverted 2-Photon FLIM Confocal). Fluorescence intensities from five cells in two independent images were quantified using custom Matlab (Mathworks) software.

[9] = confocal microscopy, 5 μM peptide

Substance | binding to mouse cMet-ECD, Western blot band (mouse cMet-ECD) | phosphorylation of cMet and downstream AKT and ERK1/2 [1] | change of QQT*-Cy5.5 fluorescence intensity on addition of unlabeled peptide (cMet (HT29 cells) [2]) | change of binding to HT29 cells with addition of HGF (cMet (HT29 cells) [3]) | intensity reduction with knockdown of cMet (cMet [4]; HT29 siCL versus sicMet) | binding to surface of control HT29 cells (cMet [4]; HT29 transfected with siCL non-targeting siRNA, confocal microscopy, 5 μM peptide) | fluorescence intensity / binding with HT29 knockdown cells (cMet [4]; HT29 transfected with sicMet-targeting siRNA, confocal microscopy) | mean intensity HT29 versus SW480 cells (cMet [5]) | binding to surface of HT29 cells (cMet+) (cMet [5]; [9]) | signal / binding to SW480 cells (cMet−) (cMet [5]; [9]) | NIR fluorescence image of flat lesion [6] | NIR fluorescence image of polyp [6] | fluorescence signal from human SSA organoid in vivo [7] | fluorescence signal from human adenoma organoid in vivo [7] | fluorescence signal from human normal organoid in vivo [7] | binding to surface of S114 cells (cMet+) (cMet [8]) | signal / binding to NIH3T3 cells (cMet−) (cMet [8])
QQTNWSL [QQT*] | strong band | no change in phosphorylation | decrease significantly; also recorded: significant decrease | no competition |  |  |  |  |  |  |  |  |  |  |  |  | 
TLQ*-Cy5.5: scrambled control sequence TLQWNQS (SEQ ID NO:3) labeled with Cy5.5 via GGGSK linker (TLQWNQSGGGS-{K(Cy5.5)-NH2}) |  |  |  |  | 0.96 fold | minimal binding | little signal; also recorded: little binding | 0.85 fold change | minimal binding | little binding | little signal; also recorded: minimal signal | minimal signal | minimal signal; also recorded: little signal | little signal; also recorded: minimal signal | little signal; also recorded: minimal signal | minimal binding | little binding
TLQWNQS (Artificial Seuqence) [TLQ*] |  |  | no significant change |  |  |  |  |  |  |  |  |  |  |  |  |  | 
